Results: paper PMC5686127, “Accessibility of the histone H3 tail in the nucleosome for binding of paired readers” (Nature Communications, 2017)

Key:
CHD4 PHD1 (aa 362–417) = molecular target: T1, CHD4 PHD1 (aa 362–417) (human, UniProt Q14839 362-417); assay: other fluorescence titration; intrinsic tryptophan fluorescence; H3 (1-12) peptide added to 0.5-1 uM CHD4 PHD construct; 25 °C, pH 7.5, 75 mM NaCl, 3 mM DTT; apparent; settings: both partners purified
T1 construct: CHD4, human, first PHD finger, aa 362-417; Cloned into pGex6p1; also called first PHD finger of CHD4; source: E. coli BL21 DE3 pLysS, purified (glutathione Sepharose 4B, GST cleaved with Prescission protease)
T1 sequence (Q14839 362-417): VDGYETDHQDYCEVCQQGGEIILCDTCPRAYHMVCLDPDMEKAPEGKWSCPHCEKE

CHD4 PHD2 (443–498) = molecular target: T2, CHD4 PHD2 (443–498) (human, UniProt Q14839 443-498); assay: as above; settings: both partners purified
T2 construct: CHD4, human, second PHD finger, aa 443-498; Cloned into pGex6p1; also called second PHD finger of CHD4; source: E. coli BL21 DE3 pLysS, purified (glutathione Sepharose 4B, GST cleaved with Prescission protease)
T2 sequence (Q14839 443-498): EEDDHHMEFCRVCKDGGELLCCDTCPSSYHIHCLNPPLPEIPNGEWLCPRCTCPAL

- Kd (CHD4 PHD1 (aa 362–417)): 4 µM
- Kd (CHD4 PHD2 (443–498)): 430 nM
B1: histone H3 peptide (aa 1–12) (peptide, UniProt P68431 2-13, looked up)
peptide: ARTKQTARKSTG
notes: histone H3, aa 1-12, unmodified; also called H3 (1–12) peptide; histone peptide; source: synthetic peptide (University of Colorado Denver Peptide Core Facility)
